biological target: T1, human FcγRI (human, UniProt P12314 16-288, limits assumed); assay: Biacore T200 (SPR)
T1 construct: Construct used in the Biacore assay (source, tag, limits) is not described; also called human FcyRI
T1 sequence (P12314 16-288 limits assumed): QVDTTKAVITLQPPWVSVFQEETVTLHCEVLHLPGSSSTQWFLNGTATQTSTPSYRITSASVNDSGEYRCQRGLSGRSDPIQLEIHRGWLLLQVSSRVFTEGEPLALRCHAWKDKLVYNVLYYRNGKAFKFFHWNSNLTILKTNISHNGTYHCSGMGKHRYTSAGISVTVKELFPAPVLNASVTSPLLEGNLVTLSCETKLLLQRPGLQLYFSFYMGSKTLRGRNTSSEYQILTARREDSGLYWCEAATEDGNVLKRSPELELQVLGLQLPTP

Row | Binder | binding result
1 | LYS_E294Del_h1x (antibody, human IgG1, kappa, Expressed in ExpiCHO-S cells without ST6GAL1 co-expression; also called anti-lysozyme antibody having the E294Del amino acid mutation in the human Igγ1 constant region) heavy: QVQLVQSGAEVKKPGASVKVSCKASGYAFSSSWVNWVRQAPGQGLEWMGRIYPGDGDTDYNGKFKGRVTLTADKSTSTAYMELSSLRSEDTAVYYCARRRGYEAVFDYWGQGTLVTVSSASTKGPSVFPLAPSSKSTSGGTAALGCLVKDYFPEPVTVSWNSGALTSGVHTFPAVLQSSGLYSLSSVVTVPSSSLGTQTYICNVNHKPSNTKVDKKVEPKSCDKTHTCPPCPAPELLGGPSVFLFPPKPKDTLMISRTPEVTCVVVDVSHEDPEVKFNWYVDGVEVHNAKTKPREQYNSTYRVVSVLTVLHQDWLNGKEYKCKVSNKALPAPIEKTISKAKGQPREPQVYTLPPSRDELTKNQVSLTCLVKGFYPSDIAVEWESNGQPENNYKTTPPVLDSDGSFFLYSKLTVDKSRWQQGNVFSCSVMHEALHNHYTQKSLSLSPGK light: DIQLTQSPSSLSASVGDRVTITCRASESVDNYDISFLNWFQQKPGKAPKLLIYAASNQGSGVPSRFSGSGSGTDFTLTISSLQPEDFATYYCQQSKEVPYTFGGGTKVEIKRTVAAPSVFIFPPSDEQLKSGTASVVCLLNNFYPREAKVQWKVDNALQSGNSQESVTEQDSKDSTYSLSSTLTLSKADYEKHKVYACEVTHQGLSSPVTKSFNRGEC | binds
2 | LYS_E294Del_LALA_h1x (antibody, human IgG1, kappa, L234A L235A, Expressed in ExpiCHO-S cells without ST6GAL1 co-expression; also called anti-lysozyme antibody having the L234A/L235A/E294Del amino acid mutations in the human Igγ1 constant region) heavy: QVQLVQSGAEVKKPGASVKVSCKASGYAFSSSWVNWVRQAPGQGLEWMGRIYPGDGDTDYNGKFKGRVTLTADKSTSTAYMELSSLRSEDTAVYYCARRRGYEAVFDYWGQGTLVTVSSASTKGPSVFPLAPSSKSTSGGTAALGCLVKDYFPEPVTVSWNSGALTSGVHTFPAVLQSSGLYSLSSVVTVPSSSLGTQTYICNVNHKPSNTKVDKKVEPKSCDKTHTCPPCPAPEAAGGPSVFLFPPKPKDTLMISRTPEVTCVVVDVSHEDPEVKFNWYVDGVEVHNAKTKPREQYNSTYRVVSVLTVLHQDWLNGKEYKCKVSNKALPAPIEKTISKAKGQPREPQVYTLPPSRDELTKNQVSLTCLVKGFYPSDIAVEWESNGQPENNYKTTPPVLDSDGSFFLYSKLTVDKSRWQQGNVFSCSVMHEALHNHYTQKSLSLSPGK light: DIQLTQSPSSLSASVGDRVTITCRASESVDNYDISFLNWFQQKPGKAPKLLIYAASNQGSGVPSRFSGSGSGTDFTLTISSLQPEDFATYYCQQSKEVPYTFGGGTKVEIKRTVAAPSVFIFPPSDEQLKSGTASVVCLLNNFYPREAKVQWKVDNALQSGNSQESVTEQDSKDSTYSLSSTLTLSKADYEKHKVYACEVTHQGLSSPVTKSFNRGEC | no binding
3 | LYS_1c3-m1_h10 (antibody, human IgG1, kappa, human Igγ1 constant region, unmodified Fc; Expressed in ExpiCHO-S cells without ST6GAL1 co-expression; also called anti-lysozyme antibody having the human Igγ1 constant region (Fc non-variant)) heavy: not shown light: DIQLTQSPSSLSASVGDRVTITCRASESVDNYDISFLNWFQQKPGKAPKLLIYAASNQGSGVPSRFSGSGSGTDFTLTISSLQPEDFATYYCQQSKEVPYTFGGGTKVEIKRTVAAPSVFIFPPSDEQLKSGTASVVCLLNNFYPREAKVQWKVDNALQSGNSQESVTEQDSKDSTYSLSSTLTLSKADYEKHKVYACEVTHQGLSSPVTKSFNRGEC | binds
